Where no end group is shown, it is not given here.
Legend:
[1] = target: PKC-ζ, purified isoform, Q05513; experiment: cell-based or functional assay
[2] = target: PKC-δ, purified isoform, Q05655; experiment: cell-based or functional assay
PKC-δ, Q05655 = experiment: cell-based or functional assay
[3] = target: PKC-β (endogenous, IMR-32 lysate) (human) (UniProt P05771); experiment: WB competition Protocol B, IMR-32 extract, vs anti-PKC-β Ab; 300 µg peptide
[4] = target: PKC-β (endogenous, IMR-32 lysate) (human) (UniProt P05771); experiment: WB competition Protocol A, IMR-32 lysate, vs anti-PKC-β Ab; 300 µg peptide
[5] = target: PKC-β (endogenous, IMR-32 lysate) (human) (UniProt P05771); experiment: WB competition Protocol A, IMR-32 lysate, vs anti-PKC-β Ab; 75 µg peptide
[6] = target: PKC-β (endogenous, IMR-32 lysate) (human) (UniProt P05771); experiment: WB competition Protocol B, IMR-32 extract, vs anti-PKC-β Ab; 100 µg peptide
[7] = target: PKC-β (endogenous, IMR-32 lysate) (human) (UniProt P05771); experiment: WB competition Protocol B, IMR-32 extract, vs anti-PKC-β Ab; 200 µg peptide
[8] = target: PKC-β (endogenous, IMR-32 lysate) (human) (UniProt P05771); experiment: WB competition Protocol A, IMR-32 lysate, vs anti-PKC-β Ab; 600 µg peptide
PKC-ζ, purified isoform [9] = target: PKC-ζ, purified isoform (UniProt Q05513); experiment: competition ELISA on coated purified PKC-ζ vs anti-PKC ζ antibody; PRE 100 µM
PKC-ζ, purified isoform [10] = target: PKC-ζ, purified isoform (UniProt Q05513); experiment: competition ELISA on coated purified PKC-ζ vs anti-PKC ζ antibody; PRE 200 µM
PKC-ζ, purified isoform [11] = target: PKC-ζ, purified isoform (UniProt Q05513); experiment: competition ELISA on coated purified PKC-ζ vs anti-PKC ζ antibody; PRE 50 µM
[12] = target: PKC-βI (purified isoform) (Homo sapiens (Human)) (UniProt P05771); experiment: competitive ELISA, coated purified PKC-βI, vs anti-PKC βI (SC-209); PRE 100 µM
[13] = target: PKC-βI (purified isoform) (Homo sapiens (Human)) (UniProt P05771); experiment: competitive ELISA, coated purified PKC-βI, vs anti-PKC βI (SC-209); PRE 200 µM
[14] = target: PKC-βI (purified isoform) (Homo sapiens (Human)) (UniProt P05771); experiment: competitive ELISA, coated purified PKC-βI, vs anti-PKC βI (SC-209); PRE 50 µM
[15] = target: PKC-βI (purified isoform) (Homo sapiens (Human)), P05771; experiment: competitive ELISA, coated purified PKC-βI, vs anti-PKC βI (SC-209); PRE 200 µM; details: remark: other sources report otherwise
[16] = target: PKC-βI (purified isoform) (Homo sapiens (Human)), P05771; experiment: competitive ELISA, coated purified PKC-βI, vs anti-PKC βI (SC-209); PRE 100 µM; details: remark: other sources report otherwise
[17] = target: PKC-βI (purified isoform) (Homo sapiens (Human)), P05771; experiment: competitive ELISA, coated purified PKC-βI, vs anti-PKC βI (SC-209); PRE 50 µM; details: remark: other sources report otherwise

Chain of PKC-δ, Q05655 (Q05655 whole entry, stated change not applied): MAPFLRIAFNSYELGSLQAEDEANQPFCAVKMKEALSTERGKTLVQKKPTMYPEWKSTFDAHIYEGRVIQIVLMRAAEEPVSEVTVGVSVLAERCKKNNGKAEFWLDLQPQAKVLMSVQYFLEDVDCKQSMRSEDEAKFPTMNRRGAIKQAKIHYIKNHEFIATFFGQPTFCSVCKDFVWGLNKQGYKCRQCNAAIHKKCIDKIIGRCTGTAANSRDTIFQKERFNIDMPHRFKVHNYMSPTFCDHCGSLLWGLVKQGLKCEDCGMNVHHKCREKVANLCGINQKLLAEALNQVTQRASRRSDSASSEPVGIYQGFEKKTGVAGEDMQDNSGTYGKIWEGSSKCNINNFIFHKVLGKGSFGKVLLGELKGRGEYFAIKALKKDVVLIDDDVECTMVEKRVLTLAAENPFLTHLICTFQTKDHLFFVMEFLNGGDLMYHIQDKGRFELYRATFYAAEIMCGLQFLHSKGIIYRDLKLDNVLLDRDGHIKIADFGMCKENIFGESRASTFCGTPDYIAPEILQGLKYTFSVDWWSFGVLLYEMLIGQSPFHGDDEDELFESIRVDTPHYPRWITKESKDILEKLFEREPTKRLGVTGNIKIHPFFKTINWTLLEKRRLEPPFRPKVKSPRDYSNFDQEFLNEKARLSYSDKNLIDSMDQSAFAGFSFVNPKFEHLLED
Chain of PKC-δ, purified isoform, Q05655 (Q05655 whole entry, stated change not applied, canonical isoform): as the sequence (Q05655 whole entry, stated change not applied) above
Chain of PKC-ζ, purified isoform, Q05513 (Q05513 whole entry, canonical isoform): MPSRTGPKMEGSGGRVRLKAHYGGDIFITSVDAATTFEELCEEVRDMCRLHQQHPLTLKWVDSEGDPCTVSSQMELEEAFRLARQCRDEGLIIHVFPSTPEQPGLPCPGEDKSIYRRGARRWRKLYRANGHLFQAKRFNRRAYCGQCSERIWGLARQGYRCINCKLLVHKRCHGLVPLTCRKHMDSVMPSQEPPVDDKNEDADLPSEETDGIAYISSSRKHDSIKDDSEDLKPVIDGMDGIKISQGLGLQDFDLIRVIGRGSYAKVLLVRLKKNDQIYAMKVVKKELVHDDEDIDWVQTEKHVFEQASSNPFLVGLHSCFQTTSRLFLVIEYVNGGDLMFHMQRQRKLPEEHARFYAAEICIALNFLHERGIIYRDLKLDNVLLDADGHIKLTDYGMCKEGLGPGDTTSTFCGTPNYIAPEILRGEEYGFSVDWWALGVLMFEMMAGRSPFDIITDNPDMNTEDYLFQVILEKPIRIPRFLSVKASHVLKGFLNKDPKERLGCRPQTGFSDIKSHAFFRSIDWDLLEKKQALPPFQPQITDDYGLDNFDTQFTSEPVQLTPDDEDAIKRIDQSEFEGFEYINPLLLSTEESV
Chain of PKC-ζ, purified isoform (Q05513 whole entry, canonical isoform): as above
Chain of PKC-β (endogenous, IMR-32 lysate) (human) (P05771 2-671): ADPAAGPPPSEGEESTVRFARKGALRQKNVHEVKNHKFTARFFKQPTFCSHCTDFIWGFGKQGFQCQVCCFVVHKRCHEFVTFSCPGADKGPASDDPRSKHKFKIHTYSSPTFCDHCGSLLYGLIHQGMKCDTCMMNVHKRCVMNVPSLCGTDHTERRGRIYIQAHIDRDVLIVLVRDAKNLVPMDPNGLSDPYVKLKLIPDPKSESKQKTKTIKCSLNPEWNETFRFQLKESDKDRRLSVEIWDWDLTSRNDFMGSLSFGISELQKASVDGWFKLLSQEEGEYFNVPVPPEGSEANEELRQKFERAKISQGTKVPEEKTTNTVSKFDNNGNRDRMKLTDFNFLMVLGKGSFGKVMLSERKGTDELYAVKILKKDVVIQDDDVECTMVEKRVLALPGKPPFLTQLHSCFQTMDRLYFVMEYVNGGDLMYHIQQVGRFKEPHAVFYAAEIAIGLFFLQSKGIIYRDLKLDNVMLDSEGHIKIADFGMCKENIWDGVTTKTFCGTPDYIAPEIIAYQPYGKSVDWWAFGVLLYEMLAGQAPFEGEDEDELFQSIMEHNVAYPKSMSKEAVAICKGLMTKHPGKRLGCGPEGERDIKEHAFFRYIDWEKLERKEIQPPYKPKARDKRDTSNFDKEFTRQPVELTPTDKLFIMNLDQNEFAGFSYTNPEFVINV
Chain of PKC-βI (purified isoform) (Homo sapiens (Human)) (P05771 2-671 limits assumed): as the sequence (P05771 2-671) above
Chain of PKC-βI (purified isoform) (Homo sapiens (Human)), P05771 (P05771 2-671 limits assumed): as the sequence (P05771 2-671) above

FRRCFRL [compound PKI 4]
% Inhibition of PKC activity at 150 µM [1]: 60%
% Inhibition of PKC activity at 300 µM [1]: 60%
% Inhibition of PKC activity at 600 µM [1]: 58%
% Inhibition of PKC activity at 150 µM [2]: 90%
% Inhibition of PKC activity at 300 µM [2]: 90%
% Inhibition of PKC activity at 600 µM [2]: 95%

FRRK(adenine PNA)FRL [compound PKI 3]
% Inhibition of PKC activity at 150 µM [1]: 37%
% Inhibition of PKC activity at 300 µM [1]: 40%
% Inhibition of PKC activity at 600 µM [1]: 56%
% Inhibition of PKC activity at 150 µM [2]: 32%
% Inhibition of PKC activity at 300 µM [2]: 41%
% Inhibition of PKC activity at 600 µM [2]: 70%

Ac-FRRCFRLGGGGGGGAKGIQEVKGGDAQNLIGISI-NH2 [Compound TIM 18 (PRE 3 and PKI 4)]
% Inhibition of kinase activity (Kinase-Glo), compound at 5.0 µM (PKC-δ, Q05655): 56.3%
% Inhibition of kinase activity (Kinase-Glo), compound at 30.0 µM (PKC-δ, Q05655): 85.1%

Ac-FRRCFRLGGGGGGGRRKKGGKDFVVKR-NH2 [Compound TIM 20 (PRE 1 and PKI 4)]
% Inhibition of kinase activity (Kinase-Glo), compound at 5.0 µM (PKC-δ, Q05655): 46%
% Inhibition of kinase activity (Kinase-Glo), compound at 30.0 µM (PKC-δ, Q05655): 45.4%

KDAQNLIGISL-NH2 [PRE 2]
Band Intensity [3]: 0
Inhibition (%) [3]: 100%
Relative Intensity (%) [3]: 0%
Band Intensity [4]: 0.403
Inhibition (%) [4]: 65.3%
Relative Intensity (%) [4]: 34.7%
Band Intensity [5]: 0.8
Inhibition (%) [5]: 31%
Relative Intensity (%) [5]: 69%
Band Intensity [6]: 0.0322
Inhibition (%) [6]: 54.7%
Relative Intensity (%) [6]: 45.3%
Band Intensity [7]: 0
Inhibition (%) [7]: 100%
Relative Intensity (%) [7]: 0%

Ac-AKGIQEVKGGDAQNLIGISI-NH2 [PRE 3]
Band Intensity [8]: 1.85
Inhibition (%) [8]: 0%
Relative Intensity (%) [8]: 99.6%
relative binding capacity (PKC-ζ, purified isoform [9]): 23.9%
Band Intensity [3]: 0
Inhibition (%) [3]: 100%
Relative Intensity (%) [3]: 0%
relative binding capacity (PKC-ζ, purified isoform [10]): 29.1%
Band Intensity [4]: 1.9
Inhibition (%) [4]: 0%
Relative Intensity (%) [4]: 102%
Band Intensity [5]: 1.9
Inhibition (%) [5]: 0%
Relative Intensity (%) [5]: 102%
Band Intensity [6]: 0
Inhibition (%) [6]: 100%
Relative Intensity (%) [6]: 0%
Band Intensity [7]: 0
Inhibition (%) [7]: 100%
Relative Intensity (%) [7]: 0%
relative binding capacity (PKC-ζ, purified isoform [11]): 14%

Ac-ISIGILQNADK-NH2 [PRE 7]
relative binding capacity (100-%n, DMSO subtracted) [12]: 0%
relative binding capacity (PKC-ζ, purified isoform [9]): 0%
relative binding capacity (PKC-ζ, purified isoform [10]): 1.54%
relative binding capacity (100-%n, DMSO subtracted) [13]: 0%
relative binding capacity (100-%n, DMSO subtracted) [14]: 2.1%
relative binding capacity (PKC-ζ, purified isoform [11]): 1.83%

ILEDKGGDAQNLIGISI [PRE 8]
relative binding capacity (100-%n, DMSO subtracted) [15]: 0%
relative binding capacity (100-%n, DMSO subtracted) [16]: 0%
relative binding capacity (100-%n, DMSO subtracted) [17]: 0%

Ac-KDAQNLIGISI-NH2 [PRE 4]
relative binding capacity (PKC-ζ, purified isoform [9]): 0%
relative binding capacity (PKC-ζ, purified isoform [10]): 5.85%
relative binding capacity (PKC-ζ, purified isoform [11]): 0%

Ac-KDANQLIGISI-NH2 [PRE 6]
relative binding capacity (PKC-ζ, purified isoform [9]): 0%
relative binding capacity (PKC-ζ, purified isoform [10]): 0%
relative binding capacity (PKC-ζ, purified isoform [11]): 0%

Ac-ISIGILNQADK-NH2 [PRE 10]
relative binding capacity (PKC-ζ, purified isoform [9]): 0%
relative binding capacity (PKC-ζ, purified isoform [10]): 0%
relative binding capacity (PKC-ζ, purified isoform [11]): 0%

Ac-RDAQNLIGISI-NH2 [PRE 11]
relative binding capacity (PKC-ζ, purified isoform [9]): 0%
relative binding capacity (PKC-ζ, purified isoform [10]): 0%
relative binding capacity (PKC-ζ, purified isoform [11]): 0%

Ac-KDAQNLI-NH2 [PRE 12]
relative binding capacity (PKC-ζ, purified isoform [9]): 8.77%
relative binding capacity (PKC-ζ, purified isoform [10]): 0.33%
relative binding capacity (PKC-ζ, purified isoform [11]): 4.2%

Ac-RDAQNLI-NH2 [PRE 13]
relative binding capacity (PKC-ζ, purified isoform [9]): 0%
relative binding capacity (PKC-ζ, purified isoform [10]): 4.29%
relative binding capacity (PKC-ζ, purified isoform [11]): 0%

Ac-AKGIQEVKGGKDAQNLIGISI-NH2 [PRE 5]
relative binding capacity (PKC-ζ, purified isoform [9]): 0%
relative binding capacity (PKC-ζ, purified isoform [10]): 0%
relative binding capacity (PKC-ζ, purified isoform [11]): 0%

RRKKGGKDFVVKR [PRE 1]
Band Intensity [4]: 0.528
Inhibition (%) [4]: 54.5%
Relative Intensity (%) [4]: 45.5%
Band Intensity [5]: 0.825
Inhibition (%) [5]: 28.9%
Relative Intensity (%) [5]: 71.1%
